target: full-length GST–MLV IN(1–408) (murine leukemia virus (MLV)); assay: pull-down; conditions: not given
Sequence (P03355 1331-1738 limits assumed): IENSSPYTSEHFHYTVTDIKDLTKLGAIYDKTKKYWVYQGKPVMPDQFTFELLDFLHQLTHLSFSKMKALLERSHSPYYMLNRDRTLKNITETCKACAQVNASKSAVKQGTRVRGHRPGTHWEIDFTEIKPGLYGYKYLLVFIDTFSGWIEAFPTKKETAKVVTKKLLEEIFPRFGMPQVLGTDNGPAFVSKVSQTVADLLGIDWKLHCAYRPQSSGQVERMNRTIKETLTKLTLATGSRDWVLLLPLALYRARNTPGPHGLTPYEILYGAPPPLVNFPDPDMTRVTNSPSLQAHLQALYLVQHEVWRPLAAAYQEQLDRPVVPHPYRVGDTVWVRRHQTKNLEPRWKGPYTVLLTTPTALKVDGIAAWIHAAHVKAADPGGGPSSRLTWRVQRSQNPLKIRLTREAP

With “6xHis–Brd4 ET(600–678) (from UniProt O60885 600-678) (domain or fragment)” as the substance, how does the Kd read?
Its Kd is 205 nM.

Which Kd does the source give for “6xHis–Brd4 B/BID(462–599) (from UniProt O60885 462-599) (domain or fragment)” here?
The Kd was > 2000 nM.

How did the Kd turn out when “6xHis–cBrd4(462–720) (from UniProt O60885 462-720) (domain or fragment)” was run?
Its Kd is 77.3 nM.

For “6xHis–Brd4(1–720) (from UniProt O60885 1-720) (natural protein)”, which Kd is on record?
The Kd was 58.4 nM.

Which Kd does the source give for “6xHis–nBrd4(1–461) (from UniProt O60885 1-461) (domain or fragment)” here?
Its Kd is > 2000 nM.

“6xHis–Brd4 ET/SEED(600–720) (from UniProt O60885 600-720) (domain or fragment)” was tested. Which Kd did it give?
The Kd was 206 nM.

test system: 6xHis-Brd4(1-720) (human); assay: streptavidin bead pull-down, Coomassie, Hill fit; conditions: no added Mg2+; DNA pull-down: 50 mM HEPES pH 7.5, 100 mM NaCl, 0.5% NP40, 2 mM BME, 8.3 uM DNA; HTRF: 25 mM Tris pH 7.4, 150 mM NaCl, 2 mM MgCl2, 0.1% NP40, 1 mg/ml BSA …

Which Kd does the source give for 40-bp SMYD1 DNA here?
Its Kd is 2140 nM.

Source: article PMC4005663
